Reference: the Immune Epitope Database (IEDB)
Each block holds one sequence with its values, some of them ahead of it.

Key:
HLA-A*02:01 [1] = test: IEDB peptide-MHC binding, purified MHC/competitive/radioactivity; ≥ and ≤ were set here for values at or beyond the usual limits of such assays
HLA-A*02:19 = test: IEDB peptide-MHC binding, purified MHC/direct/fluorescence; filed as Kd, often an IC50 or EC50 that approximates it; ≥ and ≤ were set here for values at or beyond the usual limits of such assays
HLA-A*03:01 = test: as above
HLA-A*02:12 = test: as above
HLA-B*27:03 = test: as above
HLA-B*39:01 = test: as above
HLA-A*02:03 = test: as above
HLA-A*02:01 [2] = test: as above
HLA-B*51:01 [3] = test: as above
HLA-A*02:11 = test: as above
HLA-B*15:17 = test: as above
HLA-A*24:03 = test: as above
HLA-A*02:16 = test: as above
HLA-A*69:01 = test: as above
HLA-A*68:02 = test: as above
HLA-B*46:01 = test: as above
HLA-A*30:01 = test: as above
HLA-A*01:01 = test: as above
HLA-A*31:01 = test: as above
HLA-B*07:02 = test: as above
HLA-B*44:02 = test: as above
HLA-B*58:01 = test: as above
HLA-B*08:01 = test: as above
HLA-B*15:01 = test: as above
HLA-B*27:05 = test: as above
HLA-A*26:01 = test: as above
HLA-B*40:01 = test: as above
HLA-C*07:02 = test: as above
HLA-B*51:01 [4] = test: IEDB peptide-MHC binding, purified MHC/competitive/fluorescence; filed as Kd, often an IC50 or EC50 that approximates it; ≥ and ≤ were set here for values at or beyond the usual limits of such assays; details: source organism: Shigella boydii Sb227
HLA-A*29:02 = test: IEDB peptide-MHC binding, purified MHC/direct/fluorescence; filed as Kd, often an IC50 or EC50 that approximates it; ≥ and ≤ were set here for values at or beyond the usual limits of such assays
HLA-B*57:01 = test: as above
HLA-B*18:01 = test: as above
HLA-B*45:06 = test: IEDB peptide-MHC binding, purified MHC/competitive/fluorescence; filed as Kd, often an IC50 or EC50 that approximates it; ≥ and ≤ were set here for values at or beyond the usual limits of such assays; details: source organism: Encephalitozoon cuniculi GB-M1
HLA-B*83:01 = test: as above; details: source organism: Encephalitozoon cuniculi GB-M1
HLA-B*15:42 = test: as above; details: source organism: Encephalitozoon cuniculi GB-M1
HLA-B*48:01 = test: as above; details: source organism: Giardia lamblia ATCC 50803
HLA-C*15:02 = test: IEDB peptide-MHC binding, purified MHC/direct/fluorescence; filed as Kd, often an IC50 or EC50 that approximates it; ≥ and ≤ were set here for values at or beyond the usual limits of such assays
HLA-C*06:02 = test: as above; details: source organism: Mus musculus
HLA-A*11:01 = test: as above
HLA-C*14:02 = test: as above
[5] = source organism: Salmonella enterica subsp. enterica serovar Virchow
[6] = source organism: Brucella melitensis
[7] = source organism: Brucella abortus
[8] = source organism: Encephalitozoon cuniculi GB-M1
[9] = source organism: Brucella suis 1330
[10] = source organism: Vibrio parahaemolyticus AQ3810
[11] = source organism: Salmonella enterica subsp. enterica serovar Choleraesuis str. SC-B67
[12] = source organism: Salmonella enterica
[13] = source organism: Vaccinia virus Copenhagen
[14] = source organism: Salmonella enterica subsp. enterica serovar Paratyphi B str. SPB7
[15] = source organism: Yersinia pestis

Sequence: ALYIPPYEL
IC50 (HLA-A*02:01 [1]; source organism: Rhinovirus A): 0.586 µM

Sequence: CTWPEASRY
Kd (HLA-A*02:19; [5]): ≥ 20 µM
Kd (HLA-A*03:01; [5]): ≥ 20 µM
Kd (HLA-A*02:12; [5]): ≥ 20 µM
Kd (HLA-B*27:03; [5]): ≥ 20 µM
Kd (HLA-B*39:01; [5]): ≥ 20 µM
Kd (HLA-A*02:03; [5]): ≥ 20 µM
Kd (HLA-A*02:01 [2]; [5]): ≥ 20 µM
Kd (HLA-B*51:01 [3]; [5]): ≥ 20 µM
Kd (HLA-A*02:11; [5]): ≥ 20 µM
Kd (HLA-B*15:17; [5]): 0.026 µM
Kd (HLA-A*24:03; [5]): ≥ 20 µM
Kd (HLA-A*02:16; [5]): ≥ 20 µM
Kd (HLA-A*69:01; [5]): ≥ 20 µM
Kd (HLA-A*68:02; [5]): ≥ 20 µM
Kd (HLA-B*46:01; [5]): ≥ 20 µM

Sequence: EKPPVRPIF
Kd (HLA-A*30:01; [6]): 8.74 µM
Kd (HLA-A*03:01; [7]): ≥ 20 µM
Kd (HLA-A*02:01 [2]; [7]): ≥ 20 µM
Kd (HLA-A*01:01; [7]): ≥ 20 µM
Kd (HLA-A*31:01; [7]): ≥ 20 µM
Kd (HLA-B*07:02; [7]): ≥ 20 µM
Kd (HLA-B*44:02; [7]): ≥ 20 µM
Kd (HLA-B*58:01; [7]): ≥ 20 µM
Kd (HLA-B*08:01; [6]): 5.61 µM
Kd (HLA-B*15:01; [7]): ≥ 20 µM
Kd (HLA-A*69:01; [7]): ≥ 20 µM
Kd (HLA-B*27:05; [7]): ≥ 20 µM
Kd (HLA-A*26:01; [7]): ≥ 20 µM
Kd (HLA-B*40:01; [7]): ≥ 20 µM

Sequence: FLCKQYLNL
IC50 (HLA-A*02:01 [1]; source organism: Hepatitis B virus): 0.029 µM

Sequence: FPAWFAWIF
Kd (HLA-C*07:02; source organism: Shigella boydii Sb227): ≥ 20 µM
Kd (HLA-B*51:01 [4]): ≥ 20 µM

Kd (HLA-A*02:19; [8]): ≥ 20 µM
Kd (HLA-A*03:01; [8]): ≥ 20 µM
Kd (HLA-A*02:12; [8]): ≥ 20 µM
Kd (HLA-A*29:02; [8]): ≥ 20 µM
Kd (HLA-B*27:03; [8]): ≥ 20 µM
Kd (HLA-B*39:01; [8]): ≥ 20 µM
Kd (HLA-A*02:03; [8]): ≥ 20 µM
Kd (HLA-A*02:01 [2]; [8]): ≥ 20 µM
Kd (HLA-B*51:01 [3]; [8]): ≥ 20 µM
Kd (HLA-B*57:01; [8]): ≥ 20 µM
Kd (HLA-A*02:11; [8]): ≥ 20 µM
Kd (HLA-B*15:17; [8]): ≤ 0.001 µM
Kd (HLA-A*24:03; [8]): ≥ 20 µM
Kd (HLA-B*18:01; [8]): ≥ 20 µM
Kd (HLA-A*02:16; [8]): ≥ 20 µM
Kd (HLA-A*26:01; [8]): ≥ 20 µM
Kd (HLA-B*45:06): ≥ 5 µM
Kd (HLA-B*83:01): ≥ 5 µM
Kd (HLA-B*15:42): ≥ 5 µM
Sequence: FSFFMNENF

Sequence: GQPHSLASL
Kd (HLA-B*48:01): 0.149 µM

Kd (HLA-C*15:02; source organism: Mus musculus): ≥ 20 µM
Kd (HLA-C*06:02): ≥ 20 µM
Sequence: LWFRNHFVF

Sequence: QAHMGIAGL
Kd (HLA-A*02:19; [9]): ≥ 20 µM
Kd (HLA-A*03:01; [9]): ≥ 20 µM
Kd (HLA-A*02:12; [9]): ≥ 20 µM
Kd (HLA-A*29:02; [9]): ≥ 20 µM
Kd (HLA-B*27:03; [9]): ≥ 20 µM
Kd (HLA-B*39:01; [9]): ≥ 20 µM
Kd (HLA-A*02:03; [9]): ≥ 20 µM
Kd (HLA-A*02:01 [2]; [9]): ≥ 20 µM
Kd (HLA-B*57:01; [9]): ≥ 20 µM
Kd (HLA-A*02:11; [9]): ≥ 20 µM
Kd (HLA-B*15:17; [9]): 0.003 µM
Kd (HLA-A*24:03; [9]): ≥ 20 µM
Kd (HLA-B*18:01; [9]): ≥ 20 µM
Kd (HLA-A*02:16; [9]): ≥ 20 µM
Kd (HLA-B*15:01; [9]): ≥ 20 µM
Kd (HLA-A*26:01; [9]): ≥ 20 µM
Kd (HLA-B*46:01; [9]): ≥ 20 µM

Sequence: RLDKPLWLH
Kd (HLA-A*02:19; [10]): ≥ 20 µM
Kd (HLA-A*02:12; [10]): ≥ 20 µM
Kd (HLA-B*27:03; [10]): ≥ 20 µM
Kd (HLA-B*39:01; [10]): ≥ 20 µM
Kd (HLA-A*02:03; [10]): ≥ 20 µM
Kd (HLA-A*02:01 [2]; [10]): ≥ 20 µM
Kd (HLA-B*51:01 [3]; [10]): ≥ 20 µM
Kd (HLA-B*57:01; [10]): ≥ 20 µM
Kd (HLA-B*18:01; [10]): ≥ 20 µM
Kd (HLA-A*02:16; [10]): ≥ 20 µM
Kd (HLA-B*15:01; [10]): ≥ 20 µM
Kd (HLA-A*69:01; [10]): ≥ 20 µM
Kd (HLA-A*68:02; [10]): ≥ 20 µM
Kd (HLA-A*26:01; [10]): ≥ 20 µM
Kd (HLA-B*46:01; [10]): ≥ 20 µM

IC50 (HLA-A*02:01 [1]; source organism: Homo sapiens): 1.77 µM
Sequence: RQASIELPSM

Sequence: RTAKVRAFH
Kd (HLA-A*30:01; [11]): 0.032 µM
Kd (HLA-A*03:01; [12]): 0.241 µM
Kd (HLA-A*11:01; [11]): 0.069 µM
Kd (HLA-A*31:01; [12]): 0.15 µM

Sequence: RYWYFAAEL
Kd (HLA-C*14:02; [13]): 0.015 µM
Kd (HLA-C*07:02; [13]): 1.01 µM

Sequence: SLYNLVAVL
IC50 (HLA-A*02:01 [1]; source organism: Human immunodeficiency virus 1): 0.027 µM

Sequence: SVFTGLLPF
Kd (HLA-C*14:02; [14]): 0.56 µM
Kd (HLA-C*15:02; [14]): 12.3 µM
Kd (HLA-C*07:02; [14]): 0.507 µM

IC50 (HLA-A*02:01 [1]; source organism: Homo sapiens): 0.0132 µM
Sequence: VLYRYGSFSV

Sequence: VPRVHNQPQ
Kd (HLA-A*30:01; [15]): ≥ 20 µM
Kd (HLA-A*03:01; [15]): ≥ 20 µM
Kd (HLA-A*11:01; [15]): ≥ 20 µM
Kd (HLA-A*02:01 [2]; [15]): ≥ 20 µM
Kd (HLA-A*01:01; [15]): ≥ 20 µM
Kd (HLA-A*31:01; [15]): ≥ 20 µM
Kd (HLA-B*07:02; [15]): 0.0437 µM
Kd (HLA-B*44:02; [15]): ≥ 20 µM
Kd (HLA-A*24:03; [15]): ≥ 20 µM
Kd (HLA-B*58:01; [15]): ≥ 20 µM
Kd (HLA-B*08:01; [15]): 5.69 µM
Kd (HLA-B*15:01; [15]): ≥ 20 µM
Kd (HLA-A*69:01; [15]): ≥ 20 µM
Kd (HLA-B*27:05; [15]): ≥ 20 µM
Kd (HLA-A*26:01; [15]): ≥ 20 µM
Kd (HLA-B*40:01; [15]): ≥ 20 µM
